Tests used:
[1] = target: T1, gp10-7 complex (bacteriophage T4) (bacteriophage T4, UniProt P10928 1-602; P19061 1-1032); assay: on-chip assemblograms in 1D compartments, post-staining
T1 construct: also called gp10-7 complexes

[2] = target: T2, pre-wedge, gp10-7-8 complex (bacteriophage T4) (bacteriophage T4, UniProt P10928 1-602; P19061 1-1032; P19062 1-334); assay: on-chip gene titration, yield calculated from post-staining
T2 construct: also called pre-wedges

[3] = target: T3, gp7, bacteriophage T4 gene product 7 (bacteriophage T4, UniProt P19061 1-1032); assay: on-chip assemblograms in 1D compartments on gp11-HA, post-staining with gp8
T3 construct: Expressed cell-free; also called gene-7 product
T3 sequence: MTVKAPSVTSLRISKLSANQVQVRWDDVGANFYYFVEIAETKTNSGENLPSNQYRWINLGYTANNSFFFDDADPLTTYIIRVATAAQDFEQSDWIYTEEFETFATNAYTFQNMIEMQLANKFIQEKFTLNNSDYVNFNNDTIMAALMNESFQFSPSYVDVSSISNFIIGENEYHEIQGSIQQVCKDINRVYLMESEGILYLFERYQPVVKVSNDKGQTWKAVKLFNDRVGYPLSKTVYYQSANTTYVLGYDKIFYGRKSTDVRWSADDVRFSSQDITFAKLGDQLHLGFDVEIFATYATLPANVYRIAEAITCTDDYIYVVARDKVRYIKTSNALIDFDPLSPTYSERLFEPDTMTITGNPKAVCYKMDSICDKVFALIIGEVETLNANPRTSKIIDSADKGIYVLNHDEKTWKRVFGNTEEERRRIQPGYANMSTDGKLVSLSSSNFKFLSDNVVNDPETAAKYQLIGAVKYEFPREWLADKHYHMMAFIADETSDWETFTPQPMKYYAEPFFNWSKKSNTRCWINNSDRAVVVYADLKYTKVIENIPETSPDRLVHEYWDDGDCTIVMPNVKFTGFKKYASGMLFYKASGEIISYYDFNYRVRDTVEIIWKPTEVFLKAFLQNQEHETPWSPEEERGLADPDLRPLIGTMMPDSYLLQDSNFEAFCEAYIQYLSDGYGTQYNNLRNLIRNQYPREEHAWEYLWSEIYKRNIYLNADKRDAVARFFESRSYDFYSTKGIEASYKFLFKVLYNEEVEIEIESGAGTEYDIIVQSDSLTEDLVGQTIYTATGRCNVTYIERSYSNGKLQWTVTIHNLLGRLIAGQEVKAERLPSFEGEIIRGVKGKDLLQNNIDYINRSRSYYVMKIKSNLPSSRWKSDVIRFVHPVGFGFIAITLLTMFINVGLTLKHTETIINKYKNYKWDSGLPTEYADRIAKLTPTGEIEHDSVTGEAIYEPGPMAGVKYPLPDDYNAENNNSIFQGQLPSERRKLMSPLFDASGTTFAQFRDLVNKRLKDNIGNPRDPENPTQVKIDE

B1: gp8, bacteriophage T4 gene product 8 (other)
chain: MNDSSVIYRAIVTSKFRTEKMLNFYNSIGSGPDKNTIFITFGRSEPWSSNENEVGFAPPYPTDSVLGVTDMWTHMMGTVKVLPSMLDAVIPRRDWGDTRYPDPYTFRINDIVVCNSAPYNATESGAGWLVYRCLDVPDTGMCSIASLTDKDECLKLGGKWTPSARSMTPPEGRGDAEGTIEPGDGYVWEYLFEIPPDVSINRCTNEYIVVPWPEELKEDPTRWGYEDNLTWQQDDFGLIYRVKANTIRFKAYLDSVYFPEAALPGNKGFRQISIITNPLEAKAHPNDPNVKAEKDYYDPEDLMRHSGEMIYMENRPPIIMAMDQTEEINILFTF
notes: Expressed cell-free; also called gene-8 product
B1: binds [1].

B2: gp6, bacteriophage T4 gene product 6 (other)
chain: MANTPVNYQLTRTANAIPEIFVGGTFAEIKQNLIEWLNGQNEFLDYDFEGSRLNVLCDLLAYNTLYIQQFGNAAVYESFMRTANLRSSVVQAAQDNGYLPTSKSAAQTEIMLTCTDALNRNYITIPRGTRFLAYAKDTSVNPYNFVSREDVIAIRDKNNQYFPRLKLAQGRIVRTEIIYDKLTPIIIYDKNIDRNQVKLYVDGAEWINWTRKSMVHAGSTSTIYYMRETIDGNTEFYFGEGEISVNASEGALTANYIGGLKPTQNSTIVIEYISTNGADANGAVGFSYADTLTNITVININENPNDDPDFVGADGGGDPEDIERIRELGTIKRETQQRCVTATDYDTFVSERFGSIIQAVQTFTDSTKPGYAFIAAKPKSGLYLTTVQREDIKNYLKDYNLAPITPSIISPNYLFIKTNLKVTYALNKLQESEQWLEGQIIDKIDRYYTEDVEIFNSSFAKSKMLTYVDDADHSVIGSSATIQMVREVQNFYKTPEAGIKYNNQIKDRSMESNTFSFNSGRKVVNPDTGLEEDVLYDVRIVSTDRDSKGIGKVIIGPFASGDVTENENIQPYTGNDFNKLANSDGRDKYYVIGEINYPADVIYWNIAKINLTSEKFEVQTIELYSDPTDDVIFTRDGSLIVFENDLRPQYLTIDLEPISQ
notes: Expressed cell-free; also called gene-6 product
B2: binds [2].

B3: gp10, bacteriophage T4 gene product 10 (other)
chain: MKQNINIGNVVDDGTGDYLRKGGIKINENFDELYYELGDGDVPYSAGAWKTYNASSGQTLTAEWGKSYAINTSSGRVTINLPKGTVNDYNKVIRARDVFATWNVNPVTLVAASGDTIKGSAVPVEINVRFSDLELVYCAPGRWEYVKNKQIDKITSSDISNVARKEFLVEVQGQTDFLDVFRGTSYNVNNIRVKHRGNELYYGDVFSENSDFGSPGENEGELVPLDGFNIRLRQPCNIGDTVQIETFMDGVSQWRSSYTRRQIRLLDSKLTSKTSLEGSIYVTDLSTMKSIPFSAFGLIPGEPINPNSLEVRFNGILQELAGTVGMPLFHCVGADSDDEVECSVLGGTWEQSHTDYSVETDENGIPEILHFDSVFEHGDIINITWFNNDLGTLLTKDEIIDETDNLYVSQGPGVDISGDVNLTDFDKIGWPNVEAVQSYQRAFNAVSNIFDTIYPIGTIYENAVNPNNPVTYMGFGSWKLFGQGKVLVGWNEDISDPNFALNNNDLDSGGNPSHTAGGTGGSTSVTLENANLPATETDEEVLIVDENGSVIVGGCQYDPDESGPIYTKYREAKASTNSTHTPPTSITNIQPYITVYRWIRIA
notes: also called gene-10 product
B3: binds [3].

Reference: patent US20220213467A1 (YEDA RESEARCH AND DEVELOPMENT, published 2022)
